Laboratory results published in publication PMC6555819, “Comprehensive study of nuclear receptor DNA binding provides a revised framework for understanding receptor specificity”.
Positions count from the first letter of the chain named.

B1: NRC3_wobSeed4_DR0_T25G_o1 (dsDNA)
DNA 1: GCCCTACTGGGCCAAGGTCATTGAGCAGTCAAAGCAGCGATTGACAGCGTAGAATGAAGG
DNA 2: CCTTCATTCTACGCTGTCAATCGCTGCTTTGACTGCTCAATGACCTTGGCCCAGTAGGGC
B2: NRC3_wobSeed88_DR3_A4G_o1 (dsDNA)
DNA 1: GCTGGCCTAGGTCATGCGGGCCAGTATAGTGTCGGCGCGATTGACAGCGTAGAATGAAGG
DNA 2: CCTTCATTCTACGCTGTCAATCGCGCCGACACTATACTGGCCCGCATGACCTAGGCCAGC
B3: NRC3_wobSeed74_DR3_C13G_o1 (dsDNA)
DNA 1: GCTCTAGTTGGTGACGGAGGTCACACACGACGGGTAGCGATTGACAGCGTAGAATGAAGG
DNA 2: CCTTCATTCTACGCTGTCAATCGCTACCCGTCGTGTGTGACCTCCGTCACCAACTAGAGC
B4: NRC3_wobSeed123_DR5_A17C_o1 (dsDNA)
DNA 1: GCCCTCGGAGGACAACCGGAGGTCAGAGCTGCCAGAGCGATTGACAGCGTAGAATGAAGG
DNA 2: CCTTCATTCTACGCTGTCAATCGCTCTGGCAGCTCTGACCTCCGGTTGTCCTCCGAGGGC
B5: NRC3_wobSeed15_DR0_G16C_o1 (dsDNA)
DNA 1: GCCGAACTAGGTCAACGACAGTGAATCTCCGCACGCGCGATTGACAGCGTAGAATGAAGG
DNA 2: CCTTCATTCTACGCTGTCAATCGCGCGTGCGGAGATTCACTGTCGTTGACCTAGTTCGGC
B6: NRC3_wobSeed64_DR2_o1 (dsDNA)
DNA 1: GCTAGCCTAGGTCATTGGGCCAGTATAGTACGCATCGCGATTGACAGCGTAGAATGAAGG
DNA 2: CCTTCATTCTACGCTGTCAATCGCGATGCGTACTATACTGGCCCAATGACCTAGGCTAGC
B7: NRC3_wobSeed86_DR3_G15T_o1 (dsDNA)
DNA 1: GCGCTGCTAGGTCATGTTGGTCAGCTAACGGGTACGGCGATTGACAGCGTAGAATGAAGG
DNA 2: CCTTCATTCTACGCTGTCAATCGCCGTACCCGTTAGCTGACCAACATGACCTAGCAGCGC
B8: NRC3_wobSeed5_DR0_A15G_o1 (dsDNA)
DNA 1: GCCCTTACGGGTCAGGGTTATAGCACGGGTGGTACGGCGATTGACAGCGTAGAATGAAGG
DNA 2: CCTTCATTCTACGCTGTCAATCGCCGTACCACCCGTGCTATAACCCTGACCCGTAAGGGC
B9: NRC3_wobSeed64_DR2_G17T_o1 (dsDNA)
DNA 1: B6 DNA 1 with G17T
DNA 2: B6 DNA 2 with C44A
B10: NRC3_wobSeed34_DR1_T19A_o1 (dsDNA)
DNA 1: GCATCGAAAGGTCGAAGGAGAGTATACCCACCCGAAGCGATTGACAGCGTAGAATGAAGG
DNA 2: CCTTCATTCTACGCTGTCAATCGCTTCGGGTGGGTATACTCTCCTTCGACCTTTCGATGC
B11: NRC3_wobSeed3_DR0_A22G_o1 (dsDNA)
DNA 1: GCGCTCGGAGGACAAGGTCAGGGCTTTGTCCGTAGAGCGATTGACAGCGTAGAATGAAGG
DNA 2: CCTTCATTCTACGCTGTCAATCGCTCTACGGACAAAGCCCTGACCTTGTCCTCCGAGCGC
B12: NRC3_wobSeed38_DR1_A25C_o1 (dsDNA)
DNA 1: GCCCTGCTAGGTCAATGGTCAGCTCAAGCAGCTCGCGCGATTGACAGCGTAGAATGAAGG
DNA 2: CCTTCATTCTACGCTGTCAATCGCGCGAGCTGCTTGAGCTGACCATTGACCTAGCAGGGC
B13: NRC3_wobSeed64_DR2_C21T_o1 (dsDNA)
DNA 1: B6 DNA 1 with C21T
DNA 2: B6 DNA 2 with G40A
B14: NRC3_wobSeed75_DR3_A25C_o1 (dsDNA)
DNA 1: GCTCTCGGAGGACACGAAGGTCAGCGCTTTCCAGAGGCGATTGACAGCGTAGAATGAAGG
DNA 2: CCTTCATTCTACGCTGTCAATCGCCTCTGGAAAGCGCTGACCTTCGTGTCCTCCGAGAGC
B15: NRC3_wobSeed110_DR4_A9G_o1 (dsDNA)
DNA 1: GCTCTGCTGGGTCAACGATGGTCAGCTAATCTGCTAGCGATTGACAGCGTAGAATGAAGG
DNA 2: CCTTCATTCTACGCTGTCAATCGCTAGCAGATTAGCTGACCATCGTTGACCCAGCAGAGC
B16: NRC3_wobSeed39_DR1_G17A_o1 (dsDNA)
DNA 1: GCCGAACTAGGTCAAAAGACAGTGAAAGGCGACGTAGCGATTGACAGCGTAGAATGAAGG
DNA 2: CCTTCATTCTACGCTGTCAATCGCTACGTCGCCTTTCACTGTCTTTTGACCTAGTTCGGC
B17: NRC3_wobSeed58_DR2_A7T_o1 (dsDNA)
DNA 1: GCATCGTAAGGTCGTGAGGTGAGTATACAGAAAGGCGCGATTGACAGCGTAGAATGAAGG
DNA 2: CCTTCATTCTACGCTGTCAATCGCGCCTTTCTGTATACTCACCTCACGACCTTACGATGC
B18: NRC3_wobSeed72_DR2_A9G_o1 (dsDNA)
DNA 1: GCTCGAGTGGGTTACGGGGGCATTCAGGGATGAAGAGCGATTGACAGCGTAGAATGAAGG
DNA 2: CCTTCATTCTACGCTGTCAATCGCTCTTCATCCCTGAATGCCCCCGTAACCCACTCGAGC
B19: NRC3_wobSeed34_DR1_G17A_o1 (dsDNA)
DNA 1: B10 DNA 1 with G17A, A19T
DNA 2: B10 DNA 2 with T42A, C44T
B20: NRC3_wobSeed76_DR3_A16T_o1 (dsDNA)
DNA 1: GCCCTACTGGGCCAATAAGGTCATTGATGCCGATAAGCGATTGACAGCGTAGAATGAAGG
DNA 2: CCTTCATTCTACGCTGTCAATCGCTTATCGGCATCAATGACCTTATTGGCCCAGTAGGGC
B21: NRC3_wobSeed112_DR4_G5T_o1 (dsDNA)
DNA 1: GCTATCCTAGGTCAGATCGGGCCAGTATACGCTATAGCGATTGACAGCGTAGAATGAAGG
DNA 2: CCTTCATTCTACGCTGTCAATCGCTATAGCGTATACTGGCCCGATCTGACCTAGGATAGC
B22: NRC3_wobSeed72_DR2_C15G_o1 (dsDNA)
DNA 1: B18 DNA 1 with G9A, C15G
DNA 2: B18 DNA 2 with G46C, C52T
B23: NRC3_wobSeed62_DR2_T16G_o1 (dsDNA)
DNA 1: GCTCTGCTAGGTCAGGTGGTCAGCTAACGAGCTGCCGCGATTGACAGCGTAGAATGAAGG
DNA 2: CCTTCATTCTACGCTGTCAATCGCGGCAGCTCGTTAGCTGACCACCTGACCTAGCAGAGC
B24: NRC3_wobSeed57_DR2_T19G_o1 (dsDNA)
DNA 1: GCATCTCTAGGTAACAAGGTCAGTGAAAGAGAGGACGCGATTGACAGCGTAGAATGAAGG
DNA 2: CCTTCATTCTACGCTGTCAATCGCGTCCTCTCTTTCACTGACCTTGTTACCTAGAGATGC

Molecular target: RARg:RXRa (Homo sapiens, UniProt P13631;P19793 full;full)
Assay: no ligand; PBM; 270 nM : 90 nM RXRa; PBS pH 7.4, 2% milk, 0.02% Triton X-100, 1 mM DTT, BSA, 0.4 mg/ml salmon testes DNA
Conditions: tags: His kept;His cleaved; copies: 1;1; label: surface-attached array probe
Outline: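 Binding buffer was PBS pH 7.4 with 2% milk, 0.02% Triton X-100, 1 mM DTT, 0.2 mg/mL BSA and 0.4 mg/ml salmon testes DNA. In it, ligand-free nuclear receptor dimers were incubated 1 h on custom Agilent 4×180K protein-binding microarrays carrying double-stranded probes. Antibodies against each partner (one per run) detected binding, and z-scores were calculated against random background probes after regression normalization of scanned fluorescence.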

Chain of RARg:RXRa (P13631 whole entry, chain 1 of 2): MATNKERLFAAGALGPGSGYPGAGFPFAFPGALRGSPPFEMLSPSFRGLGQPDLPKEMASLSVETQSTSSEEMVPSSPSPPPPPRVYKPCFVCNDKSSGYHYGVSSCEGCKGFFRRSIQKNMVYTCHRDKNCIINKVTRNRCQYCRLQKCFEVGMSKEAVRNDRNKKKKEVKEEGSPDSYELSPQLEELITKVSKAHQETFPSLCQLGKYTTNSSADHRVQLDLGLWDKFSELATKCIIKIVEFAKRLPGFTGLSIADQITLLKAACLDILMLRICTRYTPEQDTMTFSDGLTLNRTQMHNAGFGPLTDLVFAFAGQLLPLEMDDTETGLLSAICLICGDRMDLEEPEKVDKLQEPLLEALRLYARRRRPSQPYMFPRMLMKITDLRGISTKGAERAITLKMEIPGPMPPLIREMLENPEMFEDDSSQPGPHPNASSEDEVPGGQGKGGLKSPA
Chain of RARg:RXRa (P19793 whole entry, chain 2 of 2): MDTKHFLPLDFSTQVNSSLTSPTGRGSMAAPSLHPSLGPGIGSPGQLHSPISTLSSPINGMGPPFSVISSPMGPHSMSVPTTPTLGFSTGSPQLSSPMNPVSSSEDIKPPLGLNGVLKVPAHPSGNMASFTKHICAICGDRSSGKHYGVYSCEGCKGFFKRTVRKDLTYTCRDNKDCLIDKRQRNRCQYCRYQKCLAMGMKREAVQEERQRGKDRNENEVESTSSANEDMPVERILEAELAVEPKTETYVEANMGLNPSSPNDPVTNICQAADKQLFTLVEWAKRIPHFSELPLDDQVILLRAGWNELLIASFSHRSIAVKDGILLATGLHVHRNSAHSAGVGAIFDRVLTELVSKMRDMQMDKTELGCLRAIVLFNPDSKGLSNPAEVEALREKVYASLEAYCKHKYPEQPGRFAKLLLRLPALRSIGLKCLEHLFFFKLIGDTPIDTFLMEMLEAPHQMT

Binder | binding signal
B1 | 3.95 PBM z-score against 500 random probes
B2 | 3.93 PBM z-score against 500 random probes
B3 | 3.87 PBM z-score against 500 random probes
B4 | 3.83 PBM z-score against 500 random probes
B5 | 3.81 PBM z-score against 500 random probes
B6 | 3.78 PBM z-score against 500 random probes
B7 | 3.75 PBM z-score against 500 random probes
B8 | 3.72 PBM z-score against 500 random probes
B9 | 3.69 PBM z-score against 500 random probes
B10 | 3.65 PBM z-score against 500 random probes
B11 | 3.61 PBM z-score against 500 random probes
B12 | 3.58 PBM z-score against 500 random probes
B13 | 3.53 PBM z-score against 500 random probes
B14 | 3.49 PBM z-score against 500 random probes
B15 | 3.45 PBM z-score against 500 random probes
B16 | 3.41 PBM z-score against 500 random probes
B17 | 3.36 PBM z-score against 500 random probes
B18 | 3.31 PBM z-score against 500 random probes
B19 | 3.26 PBM z-score against 500 random probes
B20 | 3.2 PBM z-score against 500 random probes
B21 | 3.16 PBM z-score against 500 random probes
B22 | 3.1 PBM z-score against 500 random probes
B23 | 3.05 PBM z-score against 500 random probes
B24 | 3 PBM z-score against 500 random probes
